Assay results published in US20020155542A1, “Inhibitors for suppressing the activity of proteins displaying CIITA activity, methods for their identification and pharmaceutical compositions” (priority 1994, published 2002).

Assays:
[1] = system: human T cell clones T-50 and T-87; assay: Peptide-specific T cell activation with melanoma cells as antigen-presenting cells, H3-thymidine incorporation; assay type: cell-based; conditions: melanoma cells as APC, tetanus toxoid peptide p4; CIITA transfected vs 48 hours interferon gamma
Protocol: FIG. 9. Activation of human T cell clones with transfectants and interferon-stimulated cells used as APC's. Three types of cells were tested as APC'S: Untransfected melanoma cell line, MHC class II negative (o); The same cell line following 48 hours of exposure to […] of interferon gamma, MHC class II positive (black square ); The same cell line previously transfected with CIITA cDNA, MHC class it positive (black triangle). These cells were treated with various concentrations of p4, a tetanus toxoid peptide, at the concentrations indicated, fixed by UV light and incubated with two different human T cell clones specific for that peptide, T-50 and T-87. The extent of T cell activation was measured by incorporation of […] in a standard assay, and expressed as “stimulation index”.
Cells where the expression of MHC class II molecules had been induced by the transactivator gene CIITA (as CIITA cDNA) were tested for their ability to bind exogenously provided peptides and to present such peptides to T cell clones. These CIITA transfectants were compared with the same cells where MHC class II expression had been induced by interferon gamma. […] Peptide-specific T cell activation by these two types of MHC class II positive cells was measured by H3-thymidine incorporation, expressed as a stimulation index. […]

[2] = system: MHC class II positive cells; assay: Peptide binding ability of MHC class II positive melanoma cells; assay type: cell-based, human; conditions: CIITA transfectants vs interferon activated
Protocol: Cells where the expression of MHC class II molecules had been induced by the transactivator gene CIITA (as CIITA cDNA) were tested for their ability to bind exogenously provided peptides and to present such peptides to T cell clones. These CIITA transfectants were compared with the same cells where MHC class II expression had been induced by interferon gamma. The two types of cells expressed MHC class II molecules at the surface at a similar level. […] Peptide-specific T cell activation by these two types of MHC class II positive cells was measured by H3-thymidine incorporation, expressed as a stimulation index. In this particular experiment, melanoma cells were used as antigen-presenting cells.
In agreement with these functional results, the peptide binding ability of these two types of MHC class II positive cells was drastically different, being low in the interferon activated cells and high in the CIITA transfectants. Thus, CIITA induces the expression of MHC class II molecules that are unusual in their highly efficient capacity to bind and to present peptides to T lymphocytes, leading to activation of these lymphocytes.

B1: interferon gamma (protein, UniProt P01579 24-161, looked up)
Interferon gamma: QDPYVKEAENLKKYFNAGHSDVADNGTLFLGILKNWKEESDRKIMQSQIVSFYFKLFKNFKDDQSIQKSVETIKEDMNVKFFNSNKKKRDDFEKLTNYSVTDLNVQRKAIHELIQVMAELSPAAKTGKRKRSQMLFRG
notes: lymphokine used to induce MHC class II expression in melanoma cells, comparator to CIITA transfection
For B1, the “peptide-specific T cell activation (stimulation index)” value [1] was “failed to induce significant T cell activation” and the peptide binding ability [2] was “low”.
